According to patent US20110274704A1:

Tests used:
[1] = target: CD20 on lymphoma and leukemia cell lines (human) (UniProt P11836); assay: cell-based or functional assay
[2] = target: fusion protein containing the A3B3 domain of CEA (UniProt P06731); assay: competitive ELISA on coated A3B3 fusion protein; competitor HRP-conjugated hMN-14 IgG (1 nM)

Sequence of CD20 on lymphoma and leukemia cell lines (human) (P11836 whole entry, the tested form may be a part): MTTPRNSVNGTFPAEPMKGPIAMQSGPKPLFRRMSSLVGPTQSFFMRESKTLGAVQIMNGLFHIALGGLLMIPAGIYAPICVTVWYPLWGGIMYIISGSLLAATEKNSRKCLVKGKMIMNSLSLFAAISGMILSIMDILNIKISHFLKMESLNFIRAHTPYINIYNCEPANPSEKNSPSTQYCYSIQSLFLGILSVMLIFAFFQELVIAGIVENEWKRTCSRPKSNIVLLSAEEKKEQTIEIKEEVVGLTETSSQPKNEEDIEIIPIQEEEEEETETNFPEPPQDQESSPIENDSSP

Substance | EC50, in vitro cytotoxicity, Daudi and Ramos cells [1] [µM] | EC50, in vitro cytotoxicity, Jeko-1 cells [1] [µM] | fold of avidity against TF1 [2] [fold]
20-Rap (antibody) | 0.0001 | 20 | –
TF2 (bispecific antibody) | – | – | 2
